First the molecules themselves.
B1: SC113.190 (antibody, V domains shown)
VH: QVQLQQPGAELVKPGASVKLSCKASGYTFTTYYMYWVKQRPGQGLEWIGGINPSNGDTDFNEKFKSKATLTVDKSSSTVYMQLSSLTPEDSAVYFCTSAGYTSWFAYWGQGTLVTVSA
VL: QIVLTQSPALMSASPGEKVTMTCSASSSVSYMNWYQQKPRSSPKPWIYLTSHLASGVPARFSGSGSGTSYSLTISSMEAEDAATYYCQQWSSKPPTFGSGTKLEIK
B2: SC113.172 (antibody, V domains shown)
VH: QGHLQQSGAELMKPGASVKISCKATGYTFSSYWIEWVKQRPGHGLEWIGEILPGSGSTHYNEKFKGKATFTADTSSNTAYMQLISLTSEDSAVYYCARRDAMDYWGQGTSVTVSS
VL: DIVMTQSPSSLTVTPGEKVTMSCKSSQSLLTSGNQKNYLTWYQQQPGQPPKLLIYWASTRESGVPDRFTGSGSGTDFTLTISSVQAEDLAVYYCQNDYSYPYTFGGGTKLEIK
B3: SC113.187 (antibody, V domains shown)
VH: QVQLQQSGAELAKPGASVKMSCKASGYTFTSYWMYWVKQRPGQGLEWIGYINPSTGYTEYNQKFKDKATLTADKSSSTAYMQLNSLTSEDSAVYYCARSGYYGSSSLAYWGQGTLVTVSA
VL: NIVLTQSPASLAVSLGQRATISCRASESVDSYGNSFMHWYQQKPGQPPKLLIYLASNLESGVPARFSGSGSRTDFTLTIDPVEADDAATYYCQQNNEDPWTFGGGTKLEIK
B4: SC113.119 (antibody, V domains shown)
VH: QVQLQQSGTELARPGASVRLSCKASGYTFTSYGLSWVKQRTGQGLEWIGEIFPGSGNSNYNENFKGKATLTADKSSSTAYMQVSSLSSEDSVVYFCARGGFDFWGQGTSLTVSS
VL: DIQMTQSPSSLSASLGERVSLTCRASQEITGYLSWLQQKPDGTIKRLIYAASTLDSGVPKRFSGSRSGSDYSLTISSLESEDFADYYCLQYARYPPTFGGGTKLEIK
B5: SC113.118 (antibody, V domains shown)
VH: B4 VH with R19K, V83L, S87T, E89D, F103Y, S109T
VL: B4 VL with T30S, Y32F

Where a chain is given by its changes, count along the chain named.

Sequence of human TNFSF9 (R&D Systems; #2295-4L-025/CF) (human) (P41273 71-254 limits assumed): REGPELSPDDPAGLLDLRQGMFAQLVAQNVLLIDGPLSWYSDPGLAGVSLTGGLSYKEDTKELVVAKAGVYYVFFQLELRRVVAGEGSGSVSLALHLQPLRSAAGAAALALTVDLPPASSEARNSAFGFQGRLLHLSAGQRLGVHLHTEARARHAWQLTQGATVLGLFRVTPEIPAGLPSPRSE

The test has as its target human TNFSF9 (R&D Systems; #2295-4L-025/CF) (human) (UniProt P41273). The experiment in a line: MSD ELISA: TNFSF9 + 1 ug/mL antibody, binding to coated TNFRSF9.
B1: the % inhibition of ligand receptor interaction was determined as 8%. To B2 belongs -3%; to B3, -2%. For B4, the % inhibition of ligand receptor interaction was -8%. In the case of B5, the % inhibition of ligand receptor interaction is 3%.

For the origin of these results see patent US20190016812A1.
